Molecular target: PDGFR (ligand-activated, tyrosine phosphorylated) (rat (endogenous protein of Rat-1 fibroblasts)) (UniProt Q05030)
Assay: preliminary studies in ligand-stimulated Rat-1 cells; method not stated

Sequence of PDGFR (ligand-activated, tyrosine phosphorylated) (rat (endogenous protein of Rat-1 fibroblasts)) (Q05030 32-1097 limits assumed): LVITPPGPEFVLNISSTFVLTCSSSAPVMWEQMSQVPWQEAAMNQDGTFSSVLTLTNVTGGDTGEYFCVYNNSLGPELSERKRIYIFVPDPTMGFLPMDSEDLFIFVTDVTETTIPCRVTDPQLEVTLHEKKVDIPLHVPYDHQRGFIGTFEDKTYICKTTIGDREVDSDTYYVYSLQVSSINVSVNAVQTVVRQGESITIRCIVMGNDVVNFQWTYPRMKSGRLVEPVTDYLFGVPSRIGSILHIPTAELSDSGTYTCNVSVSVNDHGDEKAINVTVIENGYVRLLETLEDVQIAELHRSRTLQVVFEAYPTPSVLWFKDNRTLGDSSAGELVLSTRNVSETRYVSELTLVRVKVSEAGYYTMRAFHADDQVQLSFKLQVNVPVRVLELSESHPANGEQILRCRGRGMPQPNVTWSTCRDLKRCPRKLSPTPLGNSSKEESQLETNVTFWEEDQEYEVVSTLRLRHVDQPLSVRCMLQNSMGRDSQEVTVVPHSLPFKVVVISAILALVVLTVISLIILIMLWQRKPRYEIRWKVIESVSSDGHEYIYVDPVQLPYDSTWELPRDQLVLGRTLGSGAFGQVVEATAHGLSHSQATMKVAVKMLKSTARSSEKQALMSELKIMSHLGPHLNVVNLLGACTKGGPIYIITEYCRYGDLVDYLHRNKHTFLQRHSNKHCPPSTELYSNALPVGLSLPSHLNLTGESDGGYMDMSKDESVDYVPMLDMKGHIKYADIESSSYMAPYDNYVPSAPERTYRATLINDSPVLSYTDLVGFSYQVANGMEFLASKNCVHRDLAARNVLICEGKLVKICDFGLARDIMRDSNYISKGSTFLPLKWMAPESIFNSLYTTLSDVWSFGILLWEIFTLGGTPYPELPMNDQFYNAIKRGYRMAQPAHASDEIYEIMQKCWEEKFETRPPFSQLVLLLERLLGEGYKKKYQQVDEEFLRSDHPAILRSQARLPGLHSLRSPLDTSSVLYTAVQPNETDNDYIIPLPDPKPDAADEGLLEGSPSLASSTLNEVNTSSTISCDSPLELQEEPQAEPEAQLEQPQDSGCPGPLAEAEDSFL

percent of the total population of SHP-2 recruited into a complex: 10%
Substance: SHP-2 (from UniProt P41499 2-593) (enzyme)

— patent US20030215899A1, “Reversible oxidation of protein tyrosine phosphatases” (CEPTYR, Inc., priority 2002, published 2003)
